Laboratory results reported in patent US11856945B2, “Methods and systems for preparing and preserving a biological sample” (Washington University, priority 2017, dated 2024).

Assays:
Assay type in all cases: physicochemical
[1] = Recovery/elution of NGAL from ZIF-8 crystals and paper substrates (ELISA); details: dried on paper, recovered immediately after drying; spiked NGAL amount = 100%
Text: Preliminary experiments for investigating optimal buffer to dissolve NGAL embedded ZIF-8 crystals. To completely dissolve the crystals, the final pH of the system needs to be at or below 6.0 to ensure the complete release of NGAL from ZIF-8 encapsulation. For example, in the #4 composition (0.1 M phosphate buffer at pH 6.0), the crystals cannot be completely dissolved and this leads to incomplete recovery 60%, FIG. 8). Although the initial pH of the buffer is 6.0, the basic nature of ZIF-8 precursor residue in the system increases the pH of the buffer to 6.2, leading to incomplete release and recovery.
Left bar: Recovery percentage of ZIF-8 encapsulated NGAL dried on paper using the optimized elution buffer (#9 composition, 0.2 M PBS at pH=5.6 with 2 mM EDTA and 0.1% Tween 20). Middle bar: Recovery percentage of ZIF-8 encapsulated NGAL dried on paper using the #4 composition elution buffer (0.1 M PBS at pH=6 and 0.1% Tween 20). Right bar: Recovery percentage of NGAL alone dried on paper using the conventional elution buffer recipe (PBS at pH=7.4 with 0.1% Tween 20). The samples were recovered immediately after drying. 1 ml elution buffer was used to elute each paper strip. The spiked NGAL amount was set as the reference (100% recovery).
Protein recovery. […]

[2] = NGAL encapsulation efficiency in ZIF-8 crystals (ELISA of supernatant)
Method: To quantify the encapsulation efficiency, the supernatant after crystals centrifugation was collected and remaining NGAL concentration was determined using sandwich enzyme-linked immunosorbent assay (ELISA). […] The encapsulation efficiency was calculated by subtracting the remaining NGAL amount in the supernatant after encapsulation and centrifugation (concentration measured by ELISA) from the total NGAL amount.
Characterization. To characterize protein-embedded crystals, crystals were centrifuged and washed with DI water twice (8 k r.p.m. for 20 minutes). To calculate the encapsulation efficiency, the supernatant after first centrifugation was collected and assayed by ELISA. SEM images were obtained using a FEI Nova 2300 field-emission scanning electron microscope at an acceleration voltage of 10 kV. Fourier transform infrared spectroscopy (FTIR) measurements were conducted using a Nicolette Nexus 470 spectrometer. The Raman spectra were obtained using a Renishaw inVia confocal Raman spectrometer mounted on a Leica microscope with a 50× objective and a 514 nm wavelength diode laser as an illumination source. The X-ray diffraction (XRD) measurements of the samples were recorded on a Bruker D8-Advance X-ray powder diffractometer using Cu Kα radiation (λ=1.5406 Å).

[3] = Preservation of NGAL spiked in artificial urine dried on paper (ELISA)
Method: The efficacy was evaluated of ZIF-8 encapsulation in preserving NGAL upon exposure to harsh conditions (such as elevated temperatures) that would normally lead to protein denaturation and loss of biospecimen integrity. NGAL-spiked artificial urine dried on paper substrates, both with and without ZIF-8 encapsulation, was stored at 25, 40, or 60° C. for 1 week. Before analysis, the optimized elution buffer (0.2 M phosphate buffer at pH 5.6+Tween 20+EDTA, see Table 1 and FIGS. 8 and 9 for details) was used to elute NGAL from the paper substrates.
The slightly acidic environment (at or below pH 6) was employed to dissociate ZIF-8 crystals and release encapsulated NGAL via breaking coordination between the zinc ions and imidazolate. ZIF-8 encapsulated NGAL dried on the paper was almost fully eluted (>95%) whereas NGAL alone dried on the paper was only partially eluted (˜75%) (FIG. 9). It is important to note that ZIF-8 encapsulation prevented irreversible adsorption of proteins on the cellulose fibers by creating a crystal interface between the protein and paper substrate. […] NGAL concentration was tested by ELISA when NGAL was spiked in four different media. The same concentration of NGAL in phosphate-buffered saline (PBS) at pH 7.4 was set as the reference (100%). […] After storage and elution, the concentration of NGAL in the eluate was quantified using the NGAL sandwich ELISA. The preservation efficacy (preservation %) was calculated by comparing the NGAL amount in the eluate to the spiked NGAL amount in the artificial urine. […] NGAL added on a paper card was stored at 25, 40 or 60° C. for one week. […] The eluates were obtained by eluting paper cards dried with NGAL-spiked artificial urine with or without MOF encapsulation after storage at 40° C. for 1 week.
The preservation efficacy critically depended on the concentrations of 2-methylimidazole and zinc acetate (FIG. 14). […] The maximal preservation percentage was obtained using 160 mM of 2-methylimidazole and 40 mM of zinc acetate. […] A low preservation was noted upon using 40 mM 2-methylimidazole with 10 mM zinc acetate, which is attributed to incomplete encapsulation of NGAL under this condition (˜70% encapsulation of NGAL using 40 mM 2-methylimidazole with 10 mM zinc acetate, FIG. 7). Subsequently, using the optimal ZIF-8 precursor concentration (160 mM 2-methylimidazole and 40 mM zinc acetate), the storage time was extended under different temperatures up to 4 weeks (FIG. 11B). […] Different dried paper strips were sampled at selected time points (2, 3 or 4 weeks) to monitor possible changes in NGAL preservation. With ZIF-8 encapsulation, over 70% of NGAL on paper was preserved up to 4 weeks (the maximum time tested) at all three temperatures (25, 40 and 60° C.), as opposed to 20% preservation on samples without ZIF-8 encapsulation. […] Remarkably, 70% of NGAL on paper could be preserved within 4 weeks at 60° C., which represented an extremely harsh storage condition (a surrogate for long-term storage stability at room temperature).
Sample preparation. NGAL-spiked artificial urine (50 μg/ml of NGAL, 25 μl) or patient urine (25 μl) was first mixed with 2-methylimidazole aqueous solution (12.5 μl) and then zinc acetate dihydrate aqueous solution (12.5 μl). The final concentrations of 2-methylimidazole after mixing were 320 mM, 160 mM, 80 mM and 40 mM. The final concentrations of zinc acetate dihydrate after mixing were 80 mM, 40 mM, 20 mM and 10 mM. […]

B1: neutrophil gelatinase-associated lipocalin (protein, UniProt P80188 21-198, looked up)
Neutrophil …: QDSTSDLIPAPPLSKVPLQQNFQDNQFQGKWYVVGLAGNAILREDKDPQKMYATIYELKEDKSYNVTSVLFRKKKCDYWIRTFVPGCQPGEFTLGNIKSYPGLTSYLVRVVSTNYNQHAMVFFKKVSQNREYFKITLYGRTKELTSELKENFIRFSKSLGLPENHIVFPVPIDQCIDG
notes: urinary biomarker for acute kidney injury; human recombinant
[1]
  elution from paper substrate: ~75%
[2]; 40 mM 2-methylimidazole with 10 mM zinc acetate
  encapsulation of NGAL: ~70%
[2]; NGAL spiked in artificial urine, 40 mM zinc acetate and 160 mM 2-methylimidazole
  encapsulation efficiency of NGAL: ~95%
[2]; control: mixing NGAL-spiked artificial urine with pure pre-formed ZIF-8 crystals (physical adsorption)
  encapsulation efficiency of NGAL: ~10%
[3]; paper card, 25° C., 1 week
  NGAL preservation: less than 30%
[3]; paper card, 40° C., 1 week
  NGAL preservation: less than 30%
[3]; paper, 25° C., up to 4 weeks, 160 mM 2-methylimidazole and 40 mM zinc acetate
  NGAL preservation: 20%
[3]; paper, 40° C., up to 4 weeks, 160 mM 2-methylimidazole and 40 mM zinc acetate
  NGAL preservation: 20%
[3]; paper, 60° C., up to 4 weeks, 160 mM 2-methylimidazole and 40 mM zinc acetate
  NGAL preservation: 20%
